In assay [1] the target is T1, Scc3 (budding yeast, UniProt P40541 1-1150).
T1 construct: Scc3, budding yeast cohesin subunit; genomic DNA encoding Scc3; also called HEAT repeat subunit Scc3; source: co-purified (IgG agarose, heparin, Superose 6)
T1 sequence (looked up): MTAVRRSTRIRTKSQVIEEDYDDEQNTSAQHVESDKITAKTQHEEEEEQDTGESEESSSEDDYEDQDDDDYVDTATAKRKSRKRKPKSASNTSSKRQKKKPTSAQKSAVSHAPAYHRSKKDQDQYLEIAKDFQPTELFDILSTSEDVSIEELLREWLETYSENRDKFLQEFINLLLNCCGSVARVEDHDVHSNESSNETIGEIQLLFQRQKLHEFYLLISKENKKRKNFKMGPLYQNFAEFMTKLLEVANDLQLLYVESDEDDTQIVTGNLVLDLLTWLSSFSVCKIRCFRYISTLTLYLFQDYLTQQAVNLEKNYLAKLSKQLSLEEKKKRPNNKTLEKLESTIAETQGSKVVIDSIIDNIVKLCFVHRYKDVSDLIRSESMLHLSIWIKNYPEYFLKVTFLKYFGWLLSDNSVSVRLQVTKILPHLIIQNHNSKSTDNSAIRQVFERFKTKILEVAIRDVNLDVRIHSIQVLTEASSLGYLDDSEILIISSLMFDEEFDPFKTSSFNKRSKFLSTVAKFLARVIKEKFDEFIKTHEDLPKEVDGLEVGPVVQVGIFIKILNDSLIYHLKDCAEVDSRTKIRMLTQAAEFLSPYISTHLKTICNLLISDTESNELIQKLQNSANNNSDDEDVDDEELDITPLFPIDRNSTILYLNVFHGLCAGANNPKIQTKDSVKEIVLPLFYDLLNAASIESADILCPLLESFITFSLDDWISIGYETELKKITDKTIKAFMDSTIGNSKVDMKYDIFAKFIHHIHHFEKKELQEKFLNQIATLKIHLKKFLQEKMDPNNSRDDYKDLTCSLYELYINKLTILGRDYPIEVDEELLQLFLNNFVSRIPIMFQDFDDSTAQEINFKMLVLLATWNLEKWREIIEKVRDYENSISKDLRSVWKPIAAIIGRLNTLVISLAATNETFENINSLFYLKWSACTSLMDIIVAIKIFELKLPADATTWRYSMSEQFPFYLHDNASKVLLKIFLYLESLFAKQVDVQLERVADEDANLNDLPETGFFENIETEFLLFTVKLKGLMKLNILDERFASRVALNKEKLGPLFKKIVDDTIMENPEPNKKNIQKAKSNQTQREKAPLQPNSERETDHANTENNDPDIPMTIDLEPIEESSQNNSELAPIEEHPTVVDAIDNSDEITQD
As to the kind of experiment: SEC; purified cohesin tetramer, 150 nM in cohesin loading buffer (35 mM Tris-HCl pH 7.0, 20 mM NaCl, 0.5 mM MgCl2, 0.5 mM ATP), run directly or after 120 min at 29°C on Superose 6 Increase 10/300 GL in R buffer (150 mM NaCl); UV absorbance. To be noted: both partners purified.

For assay [2], the target named is T2, Smc3 (budding yeast, UniProt P47037 1-1230).
T2 construct: Smc3, budding yeast cohesin subunit; Smc3-encoding genomic DNA; The expression strain is eco1 deleted; also called cohesin subunit Smc3; source: co-purified (IgG agarose, heparin, Superose 6)
T2 sequence (looked up): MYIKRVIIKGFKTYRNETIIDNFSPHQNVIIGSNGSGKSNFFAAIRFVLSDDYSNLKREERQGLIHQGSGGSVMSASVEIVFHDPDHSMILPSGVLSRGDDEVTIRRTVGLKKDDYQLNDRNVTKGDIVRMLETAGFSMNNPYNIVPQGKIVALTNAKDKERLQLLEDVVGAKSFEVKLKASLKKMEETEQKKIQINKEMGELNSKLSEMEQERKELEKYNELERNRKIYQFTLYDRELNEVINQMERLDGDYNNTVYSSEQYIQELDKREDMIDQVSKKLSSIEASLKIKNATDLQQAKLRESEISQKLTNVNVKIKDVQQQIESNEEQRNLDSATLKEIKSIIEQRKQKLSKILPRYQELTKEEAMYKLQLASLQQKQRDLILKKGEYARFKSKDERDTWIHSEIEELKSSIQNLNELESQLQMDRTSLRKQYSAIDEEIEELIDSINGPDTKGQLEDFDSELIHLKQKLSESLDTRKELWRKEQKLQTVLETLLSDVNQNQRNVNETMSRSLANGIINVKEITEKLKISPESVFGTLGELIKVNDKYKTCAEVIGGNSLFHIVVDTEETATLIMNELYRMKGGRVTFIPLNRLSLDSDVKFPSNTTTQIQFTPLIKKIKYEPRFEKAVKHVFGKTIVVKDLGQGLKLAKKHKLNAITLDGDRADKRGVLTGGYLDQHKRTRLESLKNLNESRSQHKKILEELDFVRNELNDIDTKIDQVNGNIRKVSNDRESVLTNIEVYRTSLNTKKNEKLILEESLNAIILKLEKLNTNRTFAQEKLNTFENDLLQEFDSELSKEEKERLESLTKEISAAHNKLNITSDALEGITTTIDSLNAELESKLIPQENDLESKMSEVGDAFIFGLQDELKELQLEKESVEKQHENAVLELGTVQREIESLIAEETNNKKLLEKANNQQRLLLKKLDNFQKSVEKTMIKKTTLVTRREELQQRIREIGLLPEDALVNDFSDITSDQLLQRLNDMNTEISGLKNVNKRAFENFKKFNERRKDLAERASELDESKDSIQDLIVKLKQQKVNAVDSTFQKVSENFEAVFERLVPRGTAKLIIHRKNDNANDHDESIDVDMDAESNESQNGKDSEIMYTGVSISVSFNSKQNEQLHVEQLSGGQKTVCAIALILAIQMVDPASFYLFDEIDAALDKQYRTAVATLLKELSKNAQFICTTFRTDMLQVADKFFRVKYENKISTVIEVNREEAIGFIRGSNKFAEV
Described as above. To be noted: both partners purified.

B1: Scc1 (natural protein, budding yeast, UniProt Q12158 1-566, looked up)
chain: MVTENPQRLTVLRLATNKGPLAQIWLASNMSNIPRGSVIQTHIAESAKEIAKASGCDDESGDNEYITLRTSGELLQGIVRVYSKQATFLLTDIKDTLTKISMLFKTSQKMTSTVNRLNTVTRVHQLMLEDAVTEREVLVTPGLEFLDDTTIPVGLMAQENSMERKVQGAAPWDTSLEVGRRFSPDEDFEHNNLSSMNLDFDIEEGPITSKSWEEGTRQSSRNFDTHENYIQDDDFPLDDAGTIGWDLGITEKNDQNNDDDDNSVEQGRRLGESIMSEEPTDFGFDLDIEKEAPAGNIDTITDAMTESQPKQTGTRRNSKLLNTKSIQIDEETENSESIASSNTYKEERSNNLLTPQPTNFTTKRLWSEITESMSYLPDPILKNFLSYESLKKRKIHNGREGSIEEPELNVSLNLTDDVISNAGTNDNSFNELTDNMSDFVPIDAGLNEAPFPEENIIDAKTRNEQTTIQTEKVRPTPGEVASKAIVQMAKILRKELSEEKEVIFTDVLKSQANTEPENITKREASRGFFDILSLATEGCIGLSQTEAFGNIKIDAKPALFERFINA
notes: Scc1, budding yeast cohesin kleisin subunit; genomic DNA encoding Scc1; also called kleisin subunit Scc1; source: co-purified (IgG agarose, heparin, Superose 6); not shown: two tandem protein A tags, C-terminal, kept
Regarding B1, the binding result in assay [1] is reported as “binds”.

B2: Smc1 (natural protein, budding yeast, UniProt P32908 1-1225, looked up)
chain: MGRLVGLELSNFKSYRGVTKVGFGESNFTSIIGPNGSGKSNMMDAISFVLGVRSNHLRSNILKDLIYRGVLNDENSDDYDNEGAASSNPQSAYVKAFYQKGNKLVELMRIISRNGDTSYKIDGKTVSYKDYSIFLENENILIKAKNFLVFQGDVEQIAAQSPVELSRMFEEVSGSIQYKKEYEELKEKIEKLSKSATESIKNRRRIHGELKTYKEGINKNEEYRKQLDKKNELQKFQALWQLYHLEQQKEELTDKLSALNSEISSLKGKINNEMKSLQRSKSSFVKESAVISKQKSKLDYIFKDKEKLVSDLRLIKVPQQAAGKRISHIEKRIESLQKDLQRQKTYVERFETQLKVVTRSKEAFEEEIKQSARNYDKFKLNENDLKTYNCLHEKYLTEGGSILEEKIAVLNNDKREIQEELERFNKRADISKRRITEELSITGEKLDTQLNDLRVSLNEKNALHTERLHELKKLQSDIESANNQEYDLNFKLRETLVKIDDLSANQRETMKERKLRENIAMLKRFFPGVKGLVHDLCHPKKEKYGLAVSTILGKNFDSVIVENLTVAQECIAFLKKQRAGTASFIPLDTIETELPTLSLPDSQDYILSINAIDYEPEYEKAMQYVCGDSIICNTLNIAKDLKWKKGIRGKLVTIEGALIHKAGLMTGGISGDANNRWDKEEYQSLMSLKDKLLIQIDELSNGQRSNSIRAREVENSVSLLNSDIANLRTQVTQQKRSLDENRLEIKYHNDLIEKEIQPKITELKKKLDDLENTKDNLVKEKEALQNNIFKEFTSKIGFTIKEYENHSGELMRQQSKELQQLQKQILTVENKLQFETDRLSTTQRRYEKAQKDLENAQVEMKSLEEQEYAIEMKIGSIESKLEEHKNHLDELQKKFVTKQSELNSSEDILEDMNSNLQVLKRERDGIKEDIEKFDLERVTALKNCKISNINIPISSETTIDDLPISSTDNEAITISNSIDINYKGLPKKYKENNTDSARKELEQKIHEVEEILNELQPNARALERYDEAEGRFEVINNETEQLKAEEKKILNQFLKIKKKRKELFEKTFDYVSDHLDAIYRELTKNPNSNVELAGGNASLTIEDEDEPFNAGIKYHATPPLKRFKDMEYLSGGEKTVAALALLFAINSYQPSPFFVLDEVDAALDITNVQRIAAYIRRHRNPDLQFIVISLKNTMFEKSDALVGVYRQQQENSSKIITLDLSNYAE
notes: Smc1, budding yeast cohesin subunit; PCR amplified Smc1-encoding genomic DNA; also called cohesin subunit Smc1; source: co-purified (IgG agarose, heparin, Superose 6)
In the case of B2, the binding result in assay [2] is on record as “binds”.

The values above are taken from publication PMC6205631, “Topological in vitro loading of the budding yeast cohesin ring onto DNA” (Life Science Alliance, 2018).
